In paper PMC3695229:
Changes are numbered by the printed parent chain.

B1: TGFR-3-ZP(234) (domain or fragment)
chain: REPEEVQGGVNIALSVKCDNEKMVVAVDKDSFQTNGYSGMELTLLDPSCKAKMNGTHFVLESPLNGCGTRHRRSAPDGVVYYNSIVVQAPSPGDSSGWPDGYEDLESGDNGFPGDTDEGETAPLSRAGVVVFQCSLRQLRSPSGFQDQLDGQATFNMELYNTDLFLVPSPGVFSVAENEHVYVEVSVTKADQDLGFAIQTCFISPYSNPDRMSDYTIIENICPKDDSVKFYSSKRVHFPIPHAEVDKKRFSFVFKSVFQTSLLFLHCELTLCSRNKGSQKLPKCVTPDDACTSLDATMIWTMMQNKKTFTKPLAVVLQVDYKENVPNMKESSPVPPPPQIFHGLD
modifications: one remaining potential N-glycosylation site (N491)
B2: murine TGFR-3-ZP (recombinant ZP domain of TGF-β receptor type 3, residues 438-782, including the EHP) (domain or fragment)
chain: B1 chain with Q133N, Q152N, Q259N
modifications: secretory glycoprotein; four potential N-glycosylation sites (positions 491, 570, 589 and 696)

Target: human TGF-β2 (human)
Assay: SPR; Biacore 2000; biotinylated ligands immobilised on streptavidin-coated CM5 chip, TGFR-3-ZP variants as analytes; 25°C, HBS500 (10 mM HEPES pH 7.4, 500 mM NaCl, 3.4 mM EDTA, 0.005% P20); apparent affinities from equilibrium binding

Binder | Kd
B1 | 2.7 µM
B2 | 2.4 µM
